The record followed here is article PMC5844954, “Insc:LGN tetramers promote asymmetric divisions of mammary stem cells” (Nature Communications, 2018).

The target in series [1] is T1, human Insc of the Insc:LGN:Gαi complex (human, UniProt Q1MX18-2 1-532).
T1 construct: human Inscuteable; Same chain as the Insc chain of m16
T1 sequence (looked up): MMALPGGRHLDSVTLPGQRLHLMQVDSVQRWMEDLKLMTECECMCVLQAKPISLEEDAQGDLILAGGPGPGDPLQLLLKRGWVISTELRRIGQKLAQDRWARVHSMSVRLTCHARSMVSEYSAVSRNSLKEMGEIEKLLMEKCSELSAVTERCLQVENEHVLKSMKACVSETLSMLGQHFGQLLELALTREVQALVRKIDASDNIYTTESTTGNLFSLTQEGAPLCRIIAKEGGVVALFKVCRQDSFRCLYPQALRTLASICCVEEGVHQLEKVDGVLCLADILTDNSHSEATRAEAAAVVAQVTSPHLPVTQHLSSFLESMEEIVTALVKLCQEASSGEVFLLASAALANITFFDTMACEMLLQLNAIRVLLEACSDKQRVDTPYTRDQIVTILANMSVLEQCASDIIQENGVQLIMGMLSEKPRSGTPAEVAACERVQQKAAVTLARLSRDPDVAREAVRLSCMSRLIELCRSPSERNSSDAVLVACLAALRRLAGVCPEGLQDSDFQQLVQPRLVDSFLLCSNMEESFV
Briefly: SEC; Par3^PDZ123 mixed in molar excess with purified Insc:LGN:Gαi, SDS-PAGE of fractions. As to conditions: both partners purified. On the technique in general: SEC sorts molecules by how far they enter the pores of the column.

In series [2] the target is T2, Drosophila LGN (Pins) TPR domain, residues 25-406 (Drosophila, UniProt Q9VB22 25-406).
T2 construct: Pins (fly orthologue of LGN), Drosophila, residues 25-406 (TPR domain); Monomeric in isolation; two copies stand in the 2:2 tetramer with Insc^ASYM; also called dLGN^TPR; dLGN^25–406
T2 sequence (looked up): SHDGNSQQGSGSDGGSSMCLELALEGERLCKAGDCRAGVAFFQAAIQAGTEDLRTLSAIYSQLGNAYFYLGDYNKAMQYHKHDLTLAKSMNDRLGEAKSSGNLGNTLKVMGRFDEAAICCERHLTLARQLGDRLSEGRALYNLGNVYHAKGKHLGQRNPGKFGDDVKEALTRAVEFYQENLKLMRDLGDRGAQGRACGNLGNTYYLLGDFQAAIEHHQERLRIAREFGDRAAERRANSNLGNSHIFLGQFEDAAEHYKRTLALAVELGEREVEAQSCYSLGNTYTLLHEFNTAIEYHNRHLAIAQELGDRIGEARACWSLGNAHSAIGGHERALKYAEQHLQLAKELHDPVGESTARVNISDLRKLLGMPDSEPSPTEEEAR
Description: SEC-MALS; static light scattering of the dLGN^TPR:Insc^ASYM complex eluting from a size-exclusion column. The settings on record: both partners purified.

Series [3] deals with the molecule itself. Description: crystal structure; dLGN 25-406:Insc 283-623 complex, 3.4 Å, space group P212121, four tetramers in the asymmetric unit.

B1: human Par3^PDZ123 (residues 269-685), GST-tag removed (domain or fragment, UniProt Q8TEW0 269-685, looked up)
chain: DDMVKLVEVPNDGGPLGIHVVPFSARGGRTLGLLVKRLEKGGKAEHENLFRENDCIVRINDGDLRNRRFEQAQHMFRQAMRTPIIWFHVVPAANKEQYEQLSQSEKNNYYSSRFSPDSQYIDNRSVNSAGLHTVQRAPRLNHPPEQIDSHSRLPHSAHPSGKPPSAPASAPQNVFSTTVSSGYNTKKIGKRLNIQLKKGTEGLGFSITSRDVTIGGSAPIYVKNILPRGAAIQDGRLKAGDRLIEVNGVDLVGKSQEEVVSLLRSTKMEGTVSLLVFRQEDAFHPRELNAEPSQMQIPKETKAEDEDIVLTPDGTREFLTFEVPLNDSGSAGLGVSVKGNRSKENHADLGIFVKSIINGGAASKDGRLRVNDQLIAVNGESLLGKTNQDAMETLRRSMSTEGNKRGMIQLIVARRIS
notes: human Par3, residues 269-685 (the three PDZ domains), Uniprot Q8TEW0
Regarding B1, the binding result in series [1] is “binds”.

B2: Drosophila Inscuteable asymmetric domain, residues 283-623 (domain or fragment, UniProt Q24367 283-623, looked up)
chain: SLRFTASTSTPKSGSKIAKRGKKHPEPVASWMSEQRWAGEPEVMCTLQHKSIAQEAYKNYTITTSAVCKLVRQLQQQALSLQVHFERSERVLSGLQASSLPEALAGATQLLSHLDDFTATLERRGVFFNDAKIERRRYEQHLEQIRTVSKDTRYSLERQHYINLESLLDDVQLLKRHTLITLRLIFERLVRVLVISIEQSQCDLLLRANINMVATLMNIDYDGFRSLSDAFVQNEAVRTLLVVVLDHKQSSVRALALRALATLCCAPQAINQLGSCGGIEIVRDILQVESAGERGAIERREAVSLLAQITAAWHGSEHRVPGLRDCAESLVAGLAALLQPE
notes: Inscuteable, Drosophila, residues 283-623 (asymmetric domain: Insc^PEPT stretch, four-helix bundle, three Armadillo repeats); Two copies stand in the 2:2 tetramer with dLGN^TPR; also called Insc^ASYM; Insc-A^ASYM
As usually defined, the stoichiometry N is the number of molecules, sites or subunits per partner or assembly. Turning to B2, the “stoichiometry N” value in series [2] is 1 Insc per dLGN (2:2). For the same molecule, the binding result in series [3] is reported as “binds”.
